Legend:
Assay type in all cases: biochemical, Quillaja saponaria
[1] = Experiment 6-1: specificity of rhamnosidases towards other rhamnose residues (C3 saccharide rhamnose, C28 saccharide rhamnose); conditions: TBE 2%, pH 7.5, 30 degC, 18 h; LCMS/MS; negative controls 0.18, 0.17
[2] = Experiment 6-1: screening of rhamnosidases for derhamnosylation of saponins in treated bark extract (2%), desglucosyl-QS-17 2134 to QS-21 1988 (PAR %); conditions: TBE 2%, pH 7.5, 30 degC, 18 h; TIC peak area ratio percent, LCMS/MS; negative controls 2.719, 2.158
[3] = Experiment 6-1: screening of rhamnosidases for derhamnosylation of saponins in treated bark extract (2%), QS-17 2296 to QS-18 2150 (PAR %); conditions: TBE 2%, pH 7.5, 30 degC, 18 h; TIC peak area ratio percent of rhamnosylated starting saponin to derhamnosylated product, LCMS/MS; negative controls 4.876, 5.225
[4] = Experiment 6-1: screening of rhamnosidases for derhamnosylation of saponins in treated bark extract (2%), QS-17 2310 to QS-18 2164 (PAR %); conditions: TBE 2%, pH 7.5, 30 degC, 18 h; TIC peak area ratio percent, LCMS/MS; negative controls 3.061, 2.429

Molecule	ratio PP/QS-21 [1]	Peak75 (PAR %) [2] [%]	QS-17 (PAR %) [3] [%]	Peak57 (PAR %) [4] [%]
1051 (protein, Subdoligranulum variabile) MDGGPLFLSWQCTGGLRQTAYEIHLTADDALVWESGKVATQSMHADAPAVEGARVRGSWKVRLWDENNCPGPWSGARFETGLSTGEWQGLWVAPETAPLDIPGDDAINAFARPNWERKQAEKEAAGKGAAEPYQPHRPASYLRKTFTAPSGRGRLYITAKGLYVAWLNGVRVGDMVLAPGSFTADKHLGAQTYDVTALLREGENELLIALGDGWYRSTSGVDGDRNLFGDTLGVLFQLEVDGKVVCVSDDTMQATQQGPIRQNDLQQGEVYDARLEGLLSGWHEVQTYRDALPVTGMNTVPIREREAFPGRLFTAPNGETVLDFGQNIAGYVEMTLTAHAGQKVLLTCGETLDENGNFTQENFQDRSRHNEGGTAQMLELICKEGVNHWKPSFTIMGFQYAKVETDADLTGAVFTAHAVYSDMAVTGSFTCGNKAVNRLVANSIWSQKGNFCDIPTDCPTRERAGWTGDMGVFIETGLTLMDCYPVVAKWLKECRLNQYPDGRMANIAPPNSRPGYMTPMLCMSAGWGDAAILVPYALYKRTGDRRILADNYEMMQRWYAFLLGRAQQTTEEQQSGEYAKYTVLNGLDYGEWCEPGVTPMQAMANPRKSVGTAYLAYSGRLLAEIAAVLGRQEEADAYRATADKAVKAYRAAFTEDGVIHSDRQCEYVRAIAFALLGEEESRAAATTLNQMVVDNGCHLNTGFLSTPFLCGVLAQYGYIDTAYRLLLQPEAPGWLYEVNKGANTVWETWTGIDAEGKPHESLNHYSYGAICGWLFGGVCGIHFTDGQLTIAPTPHKALGYAKAVYDSPAGRIESGWRYEGDTVTYEFTIPTNITAHIHLPDGRTRMLSAGTHRL	0.16	2.426	5.289	2.918
1013 (protein, listed as Chloroflexus aurantiacus) MSYEQLSTSQSQVSRLIVRVEHYQSTLGIGNPCPRLSWIIETNATNWLQTAYEIECYTKDGRVRGRTGWIHSPESVLVPWPFEPLTSREQVLVRVRVRDNKGDISPWSEMLPIEAGLLKVGDWSARFITPDWDDDILKPQPCPMLRHEFRVDNDVIQARLYITSLGVYEAQINGVVVGDQVLAPGWTVYDRRLRYQTFDVTMHLREGINAIGVILGDGWFRGRLGFGGGRRNIYGNRLAVLAQLEITYRDGSTQQVCTDQTWRSTTGPILASDIYDGEIYDARLELPNWSKPGFADHQWSGVRLLEWDFSTLVAPISPPIRRIEMVLPVAIFSSPSGRTIVDFGQNLVGRVRLTVSGPPGQMITVRHAEVLEGGELSTRPLRFAAATDRYILRGDGTEVWEPRFTFHGFRYAEIDGWPGELRTTDIVAVVIHSDMERIGWFTCSDQLLNRFHENVVWSMRGNFLDVPTDCPQRDERLGWTGDIQVFAPTAVFLYDVAGLLQSWLIDLAIEQEKLGGAVPHVVPNVLGPSAAGAAAWGDAATVVPWVLFQRYGDKRVLETQYKSMRSWVDYIATKAGHTYLWDRGFQFGDWLDPTAPPDKPGQARTDKAIVASAYFIFSATLVAKAAHVLGYDADADFYADLAHKARFAFAKEYITPAGRLMCDTETAYALALVFDLFPTDTQRRYAGERLAALVRDSGYHIRTGFVGTPLICDALCSVGHCRVAYRLLMQRECPSWLYPVTMGATTIWERWDSMLPDGSINPGEMTSFNHYALGAVADWMHRTIGGLIPVEPGYRRIEFRPQPGGEIVYARVSHRTPYGLAECFWRIEEGVFYLRVVVPPNTTAQVFLPGRDDQPLDVGSGIWQWSIPCQDTATRGSYTVDDLVDEIIDDEVAREAVNQVLSQVDAWRLFGNLLLNERSASLREAIQALPNSEIVIERLNALLTRIPKKDGI	0.17	2.388	5.272	2.576
1014 (protein, listed as Thermoclostridium stercorarium) MMRVYNLKTNRIKNPMGFVINKPKLSWLVESDTAKHQVAAQVEISADINFENIIFDSGKRTDIDSISYSPQVELKPRTRYYWRVRVWGDDGSEAVSEAAWFETSKMDEPWKAKWITPDFDPSVHPVVFTDFSIERDVADARAYVCGLGLYEMSVNGEKTGDEYLAPGLVAYDKWIPYQTYDITSQLKKGINTAEFLLGNGWYKGRYGLNRKQPFRYGNEFALICEIHITYQDGTADVIYTDTSWKARKSKVIDSGIYDGEIYDDTFCDDAVYPVRIADLDVNKLEPRRSPGIKIKERIKPAEIIRTPEGETVIDMGQNMVGWLEFTNRAPKGAEIMLQFGEVLQDGNFYRDNLRTAKCEFHYISDGKVKKVRPHFTFYGFRYVKLTKWEGEVNPEDFTGLVLYSDLERTGNITTDNSLVNRLFLNALWSQKGNFLDVPTDCPQRDERMGWTGDAQVFSGAAAFNMDVFAFFGKYLYDLKQEQKARGGNVPVVVPAHDVKQNGACGWGDAAVIIPWNMYLHYGDVSILEQQYKSMKGWVDYIKSKDDAAGGRRLWLNDFHYGDCVSLDVEDPFNRFGGTEHAYLASAFYSYSAGIVSKAAKILNKKEDAEYYRKLSEEVKNAIRKEYFTPTGRLAVNTQTAYVIALYMDLVPDEWKERVAFELRKKLKETKYHLRTGFLGTPYLCRVLSEYGSNDIAYRLLTNTDYPGWLYPVTMGATTIWERWNSMLPDGKVSDTGMNSFNHYSYGSIVEWIYRNAAGIQPVEDAPGFRRFRLKPQPHYLLKSLDAEFLSPAEKIISRWNINENGSVSFYFRIPFNTTAELVLPDTEVQDWKEFMSLNVVNILILTCLKDLTRKCTEQILQCGKFMKMRGQKKL	0.18	2.741	5.309	3.359
1006 (protein, listed as Geobacillus sp.) MAAIKATDLRTEGILNPFGLDAERPRLSWSFGQPAGAGSGQSAYRIAVASSEERLKLGEPDVWDSGIVRSCEHVSIPYEGASLMPRRRYYWHVTAWDGQGQPAVSKAAWWETGLLAEAKWSERWIGDAAEAADRGPMIQLRKSFEVKKPVARARAYVTGLGHYELRLNGAKVGDRQLEPGWTNYDKTVLYSVYDVTPGLRQGENAVGVLLGNGFYRVAGGRYAKFKGSFGNPKCLAELVIEYADGTAETIVTDGTWSLSDSPLTFSCIYGGEDYDAGLERTGWDGPGFVEDGDWRRACELEPPPGKLTAQSSPPLAITKRLPARSVSEPRRGVYVYDLGQNFSGWPCIRVSGPNGTRVKLKPAELLTEEGLANQKYSGSPYELNYVLKGEGIEEWHPRFTYYGFRYVQVEGAAPAGEGVEESDLPVLHGLEGHMIGPDVEDAGGFRCSDPLLNRIHEIINWAILSNMKSVFTDCPHREKLGWLEQLHLMGPSVMFNYECEALLEKIMRDMSDAQLPNGMVPTTAPEYVVFEEPWHMFRDAAAWGGSYILLAWEMLRRYGSVGTLERHYEGMGRYVHYLTEASDGFILRGGLGDWYDIGPKGPGFAQNTSVALVETAIFFGLARALGEIALVLGKAEDASAHSRLSESIRTAFHSAFYDTANAMYAEGSDTAIAMPLAIGLAPEELRGVLLDRLVRNIGERGWQTTAGDVGHRYVLSALASGGRSDVVGKMARNPHAPGYAYQVAHGATSLTEAWDGPTVGKSQNHFMLGHLEEWLYASLAGLDYRYRPEVGRYLVKAKPTVVQGVEWAEAWQQLRSGRASVRWELGPSNQMTVRVDIPANSEGLIRIPSSPDTPVLASGPDVAYEGHEDGHAVYRSGPGSYCFTFAANHRTTEMERERM	0.18	2.645	5.339	3.237
1030 (protein, listed as Lactobacillus crispatus) MKLVRIEVNHMETPIGFNLDNHLHLVGFLDGPVTSKLQRKLIIKAHDKEIVTFDWENADNLIFDFPINLTARTRYEVEMSVKNDREMSTATTYFETGQIDETLKGKWIGTEHKDLHSIILYKKFTTKDVKKARLYISGLGLFEAYLDGNKIGNEFLTPGFTDYNYDLQIESYDLTTELLKSGEHTLAIMLGDGWYRGKLGLKVHGGQPNNYGDQLMAIADLRINDDQQIIVTDKSWQVTTSPITHSGIYYGEDLDDNRQLNELANAIELTSPTKHLVDRQSLPIQRHEQFSVKEIIKTPSGATVLDFGQNMAGWLEFKNTIPKGEKVSIEFGEIMLDGEFYRDNLRSARAQFTYVSDGKEKWVRPHFTYFGFRYVKLNDFEGEIDPNNFRAVALYSNMIETGEIITNNSDVNRLFENVKWGQKSNFIDIPTDCPQRDERLGWTGDAAIFSKTASYNMDTYQFLKKYAYDIAVEQSKNNGFVPLYVPAVDTKDGGKAVWSDAATIIPWIAYKRTGDLAILRQNIGAMMSWVDWIHDRAVSHGQEYLWLGDDQLGDWLALDTEDIMKLKGKTPDDLIASAYYYYSAKLVSQSAETLNMKHEKQYYGQLAKLIKHAFINHFFTKDGLSIADTQTGLALCLSFKLYPANAKDNLINKLVEKVEVNQNHLNTGFVGTPLLLPALTDNGQQDLALRLFLNTDFPSWLFEVKNGATTIWERWNSVDSEGHIAQNGMNSLNHYSSGAVMEWAYEDLLGLKQNGNDAVFKPMLTAKLNQISGQIALPTGIVKVAWHIKSSKLIHLEMDIPYGSHLKLILPKHEQDIPTIFKSGHYELDVEVINPIVEAFDVHTPLAEYRNQTSLTKKLSELVPFWGFLAMPGNMDHFAKYSLLQLSREMRGIGFKPFTQEDIEKINQLFKEYHFKGAEK	0.17	2.127	5.315	3.621
1026 (protein, listed as Pseudarthrobacter chlorophenolicus) MTAPARLRAEHLREAMGLAVREPRLSWTPPAATAGQTAYRIMADNGWDTGRIASAESGGIAYGGPALDSRSRFDWRVRTWNVDSDGTETASDWSESMPVELGLLHPSDWTGQWISPGEEAVSPPGERPGYALTRTFTLPAAPDKARAYATAHGIYELFINGQRVGDQQLTPGSTSYNTTLQVQAYDVTALLTAGLNTIRAVLTDGWYRGTFGYTRDADMYGTHTAFLAQLELESEAGRQVIGTDPSWLVSATEVISADLMAGQRVDFRAYDTGSAPSAGKAPGVRAAVVRPGSFGALTGPLAPPTRVTEELAPVSITRLRNGHQVVDFGQNIHGWVRLAALGGPGETVTLEYGEALGRDGDVTRDHLRPHDFRVPGAFLDAGQVDTVTASGAPGEVFEPRHTSHGFQFVSVRGLATDLRPRDVTACLVRTDLERIGTFHCSDERLNKLHGIVEWSFLGNSCEVPTDCPQREKAGWTGDWQLFVPTAAYLYDVTGFTRKWLRDVRADQWDNGVIANISPSPGPAITSAEFMGFTNGSSGWGDAIVMVPWEAYLATGDASILAENWDAMNRWLGFVRTTAETRRHAARATQAPVPADHEKYLWDTGFHFGEWMEPDGPGPDLFASRTADNGIVATAYYRHTTDLMARIARALGLAAEAADLARLSDAIRDAWATEYLDESGRVTVASQANCVRALAFQLAGTEHRAAVTTQLVELIRDAGTHLGTGFLATPYLLPVLADHGHLGLAYELLMQDSEPSWLAMVDRGATTVWELWNGLDAGGAPHQSLNHYSKGAVVSFLHRYTAGLRQAPGSAGWNRIIIEPRPGAGLTSAATSHQGPHGPITVAWTLSTDALGPDEMTADGVLTLTADIPSGTTAEILLPGQPAAVVGPGHHVFSAATGGDTAHPELMRSTL	0.17	2.501	5.271	2.755

— patent US20240026407A1, “MODIFICATION OF SAPONINS” (GLAXOSMITHKLINE BIOLOGICALS SA, priority 2020, published 2024)
